The record followed here is patent publication US20210380680A1 (ZLLP, published 2021).

Residue numbers refer to the chain shown, from its start. Names and notes keep the numbering of the source.

Sequences and labels used below:
B1: 413H9F8-H3L4 (antibody, V domains shown)
VH: EVQLVESGGGLVQPGGSLRLSCAASGFTFSSFGMHWVRQAPGKGLEWVAYISSGSSPIYYVDKLKGRFTVSRDNAKNSLYLQMNSLRAEDTAVYYCARAGYAVRNALDYWGQGTLVTVSS
VL: DIVMTQSPDSLAVSLGERATISCKSSQSLLNVGNQKNYLAWYQQKPGQPPKLLIYGASTRESGVPDRFIGSGSGTDFTLTISSLQAEDVAVYFCQNDLFYPLTFGAGTKVEIK
notes: humanized IgG; constant regions not specified
B2: 413H9F8-H4L3 (antibody, V domains shown)
VH: B1 VH with N84T
VL: B1 VL with S22N, A106G
notes: as for B1
B3: 364D1A7-H4L1 (antibody, V domains shown)
VH: DVQLVESGGGLVQPGGSLRLSCAASGFTFSSFGMHWVRQAPGKGLEWVAYISSGSGSIYYADTVKGRFTLSRDNPKNTLYLQMNSLRAEDTAVYYCATSYYYGNALEYWGQGTTVTVSS
VL: DIVMTQSPDSLAVSLGERATINCKSSQSLFNVGNQKNYLTWYQQKPGQPPKLLIYWASTRKSGVPDRFSGSGSGTDFTLTISSLQAEDVAVYYCQNVYSYPLTFGGGTKVEIK
notes: humanized IgG; constant regions not specified; also called 364D1A7-H41L
B4: 364D1A7-H4L5 (antibody, V domains shown)
VH: B3 VH
VL: B3 VL with I2V, M4L, N22S, P49T, K51T, S69T, G106A
notes: as for B1
B5: 364D1A7-H1L5 (antibody, V domains shown)
VH: B3 VH with D1E, A49S, L70I, P75A, T78S
VL: B3 VL with I2V, M4L, N22S, P49T, K51T, S69T, G106A
notes: as for B1
B6: 364D1A7-H2L2 (antibody, V domains shown)
VH: B3 VH with D1E, L70I, T78S
VL: B3 VL with M4L, P49T
notes: as for B1
B7: hz282-2 (antibody, V domains shown)
VH: QVQLQESGPGLVKPSETLSLTCTVSGFSLTSYNVYWIRQPPGKGLEWIGVIWNTGATRYNSALKSRVTISKDTSKNQVSLKLSSVTAADTAVYYCARDSAMPAIPFAYWGQGTLVTVSS
VL: DIVMTQSPDSLAVSLGERATINCKSSQSLFGSVRQKNYLAWYQQKPGQPPKLLIYLASTRESGVPDRFSGSGSGTDFTLTISSLQAEDVAVYYCQQYYDIPWTFGGGTKVEIK
notes: as for B1
B8: hz282-7 (antibody, V domains shown)
VH: B7 VH with N76S
VL: B7 VL with P49S, V91K
notes: as for B1
B9: hz282-6 (antibody, V domains shown)
VH: B7 VH
VL: B7 VL with P49S, V91K
notes: as for B1
B10: 413H9F8-H1L2 (antibody, V domains shown)
VH: B1 VH with A49S, V70I
VL: B1 VL with S22N, I69S, A106G
notes: as for B1
B11: 413H9F8-H1L4 (antibody, V domains shown)
VH: B1 VH with A49S, V70I
VL: B1 VL
notes: as for B1
B12: 413H9F8-H4L1 (antibody, V domains shown)
VH: B1 VH with N84T
VL: B1 VL with S22N, I69S, F93Y, A106G
notes: as for B1
B13: 413H9F8-H4L2 (antibody, V domains shown)
VH: B1 VH with N84T
VL: B1 VL with S22N, I69S, A106G
notes: as for B1
B14: 413H9F8-H4L4 (antibody, V domains shown)
VH: B1 VH with N84T
VL: B1 VL
notes: as for B1
B15: 413H9F8-H3L2 (antibody, V domains shown)
VH: B1 VH
VL: B1 VL with S22N, I69S, A106G
notes: as for B1
B16: 413H9F8-H2L3 (antibody, V domains shown)
VH: B1 VH with V70I
VL: B1 VL with S22N, A106G
notes: as for B1
B17: 413H9F8-H3L1 (antibody, V domains shown)
VH: B1 VH
VL: B1 VL with S22N, I69S, F93Y, A106G
notes: as for B1
B18: 413H9F8-H2L4 (antibody, V domains shown)
VH: B1 VH with V70I
VL: B1 VL
notes: as for B1
B19: 413H9F8-H3L3 (antibody, V domains shown)
VH: B1 VH
VL: B1 VL with S22N, A106G
notes: as for B1
B20: 364D1A7-H2L3 (antibody, V domains shown)
VH: B3 VH with D1E, L70I, T78S
VL: B3 VL with I2V, M4L, P49T
notes: as for B1
B21: 364D1A7-H2L4 (antibody, V domains shown)
VH: B3 VH with D1E, L70I, T78S
VL: B3 VL with I2V, M4L, N22S, P49T, K51T
notes: as for B1
B22: 364D1A7-H3L3 (antibody, V domains shown)
VH: B3 VH with D1E, T78S
VL: B3 VL with I2V, M4L, P49T
notes: as for B1
B23: 364D1A7-H2L5 (antibody, V domains shown)
VH: B3 VH with D1E, L70I, T78S
VL: B3 VL with I2V, M4L, N22S, P49T, K51T, S69T, G106A
notes: as for B1
B24: 364D1A7-H1L4 (antibody, V domains shown)
VH: B3 VH with D1E, A49S, L70I, P75A, T78S
VL: B3 VL with I2V, M4L, N22S, P49T, K51T
notes: as for B1
B25: 364D1A7-H3L5 (antibody, V domains shown)
VH: B3 VH with D1E, T78S
VL: B3 VL with I2V, M4L, N22S, P49T, K51T, S69T, G106A
notes: as for B1
B26: 364D1A7-H2L1 (antibody, V domains shown)
VH: B3 VH with D1E, L70I, T78S
VL: B3 VL
notes: as for B1
B27: 364D1A7-H1L2 (antibody, V domains shown)
VH: B3 VH with D1E, A49S, L70I, P75A, T78S
VL: B3 VL with M4L, P49T
notes: as for B1
B28: 364D1A7-H3L2 (antibody, V domains shown)
VH: B3 VH with D1E, T78S
VL: B3 VL with M4L, P49T
notes: as for B1
B29: 364D1A7-H3L4 (antibody, V domains shown)
VH: B3 VH with D1E, T78S
VL: B3 VL with I2V, M4L, N22S, P49T, K51T
notes: as for B1
B30: 364D1A7-H1L3 (antibody, V domains shown)
VH: B3 VH with D1E, A49S, L70I, P75A, T78S
VL: B3 VL with I2V, M4L, P49T
notes: as for B1
B31: 364D1A7-H4L2 (antibody, V domains shown)
VH: B3 VH
VL: B3 VL with M4L, P49T
notes: as for B1
B32: 364D1A7-H4L4 (antibody, V domains shown)
VH: B3 VH
VL: B3 VL with I2V, M4L, N22S, P49T, K51T
notes: as for B1
B33: 364D1A7-H4L3 (antibody, V domains shown)
VH: B3 VH
VL: B3 VL with I2V, M4L, P49T
notes: as for B1

The first assay deals with T1, human Claudin 18.2 (CLDN18.2) (human, UniProt P56856-2 1-261). Kind of assay: cell-based or functional assay.
As to B1, the “% ADCC @ 6.67 nM, NCI-N87-CLDN18.2, FcR-TANK” value (“% ADCC @ 6.67 nM” below) was 16% and the “ADCC EC50, NCI-N87-CLDN18.2, FcR-TANK” value was found to be 0.35 nM.

For the molecule B2, the “% ADCC @ 6.67 nM” value was found to be 15.4% and the “ADCC EC50, NCI-N87-CLDN18.2, FcR-TANK” value was found to be 0.47 nM. For the molecule B3, the “% ADCC @ 6.67 nM” value was found to be 9.3% and the “ADCC EC50, NCI-N87-CLDN18.2, FcR-TANK” value was 0.31 nM. Regarding B4, the “% ADCC @ 6.67 nM” value was determined as 12% and the “ADCC EC50, NCI-N87-CLDN18.2, FcR-TANK” value was 0.34 nM. In the same order, the values of B5 are 9.1% and 0.26 nM. The corresponding values for B6 are 9.4% and 0.22 nM.

A further assay concerns the target T1, human Claudin 18.2 (CLDN18.2). In words: cell-based or functional assay. The source holds these as a separate data set.
B1: the “% specific cytotoxicity @ 6.67 nM, NUGC4-CLDN18.2, PBMC” value (shortened to “% specific cytotoxicity @ 6.67 nM”) stood at 28.7% and the “ADCC EC50, NUGC4-CLDN18.2, PBMC” value is 6.09 nM.

Regarding B2, the “% specific cytotoxicity @ 6.67 nM” value was 27.8% and the “ADCC EC50, NUGC4-CLDN18.2, PBMC” value was 7.01 nM. B3: the “% specific cytotoxicity @ 6.67 nM” value was determined as 26.4% and the “ADCC EC50, NUGC4-CLDN18.2, PBMC” value turned out to be 7.58 nM.

For the molecule B4, the “% specific cytotoxicity @ 6.67 nM” value amounted to 26.4% and the “ADCC EC50, NUGC4-CLDN18.2, PBMC” value was 6.4 nM.

With B5, the “% specific cytotoxicity @ 6.67 nM” value was found to be 27.5% and the “ADCC EC50, NUGC4-CLDN18.2, PBMC” value was found to be 8.17 nM.

With B6, the “% specific cytotoxicity @ 6.67 nM” value was found to be 26.6% and the “ADCC EC50, NUGC4-CLDN18.2, PBMC” value came out at 9.69 nM.

Another assay has as its target T2, CLDN18.2 endogenously expressed on SNU620 gastric cancer cells (UniProt P56856-2 1-261, limits assumed).
T2 construct: whole, on cells; also called SU620
In words: FACS Exp. 3, SNU620 cells.
For B7, the “MFI_SNU620 (@30 ug/ml)” value turned out to be 1060 MFI.

Turning to B8, the “MFI_SNU620 (@30 ug/ml)” value was determined as 1250 MFI. Take B9: the “MFI_SNU620 (@30 ug/ml)” value turned out to be 1290 MFI.

A further assay addresses T1, human Claudin 18.2 (CLDN18.2). In words: FACS on CHO-CLDN18.2 cells.
The term EC50 denotes the concentration giving half of the maximal effect. Low values mean an effect from little substance, high ones a need for much substance. B10 displayed an EC50 of 2.18 nM. This counts as single-digit nanomolar. For the molecule B11, it took 3.32 nM to reach a half-maximal effect (EC50). This EC50 is about 1.5-fold higher than that of the molecule before.

Turning to B12, it took 2.69 nM to reach a half-maximal effect (EC50). Consider B1, for which the response was half-maximal at 2.74 nM (EC50).

On to B13, for which the response was half-maximal at 2.45 nM (EC50). The molecule B14 returned a 50% effective concentration (EC50) of 2.34 nM. The EC50 values of the last two molecules are within 1.5-fold of each other.

Molecule B15 displayed a half-maximal effective concentration (EC50) of 2.14 nM. This EC50 and that of the molecule before are within 1.5-fold of each other. B16: the concentration for a half-maximal effect (EC50) was 2.49 nM. For B2, the concentration giving a half-maximal response (EC50) is 2.62 nM. Consider B17, for which the EC50 stood at 2.42 nM. Still for that read-out and setting: to B18 belongs 2.8 nM; to B19, 2.24 nM.

A further assay has the same target. Kind of assay: FACS on CHO-CLDN18.2 cells. The source holds these as a separate data set.
Molecule B20 gave a concentration for a half-maximal effect (EC50) of 4.4 nM. The same measure, in the same setting: under B3 stands 4.12 nM; under B21, 3.94 nM; under B22, 3.54 nM. The molecule B23 showed an EC50 of 3.35 nM.

B4 returned a 50% effective concentration (EC50) of 4.38 nM. The molecule B24 had a concentration for a half-maximal effect (EC50) of 4.03 nM.

As for B5, the concentration giving a half-maximal response (EC50) is 3.96 nM. This EC50 and that of the molecule before are within 1.5-fold of each other. B25: the EC50 was found to be 4.53 nM. Consider B26, for which a half-maximal effect (EC50) was put at 3.47 nM. As to B27, the EC50 was 6.9 nM. The molecule B28 yielded an EC50 of 4.05 nM. The molecule B6 returned an EC50 of 6.14 nM. This EC50 lies about 1.5-fold higher than the previous one. B29 had an EC50 of 4.78 nM. Still for that read-out and setting: to B30 belongs 4.1 nM; to B31, 4.51 nM. With B32, the EC50 turned out to be 3.85 nM. Same read-out and setting: to B33 belongs 4.56 nM.

A further assay has the same target. Kind of assay: FACS Exp. 1, MFI ratio CHO-18.2 over CHO-18.1.
Turning to B7, the “MFI_CHO-18.2/CHO-18.1 (@30 ug/ml)” value was 521. Turning to B8, the “MFI_CHO-18.2/CHO-18.1 (@30 ug/ml)” value came out at 624. Take B9: the “MFI_CHO-18.2/CHO-18.1 (@30 ug/ml)” value came out at 521.
